Source: patent US20190330271A1 (HANGZHOU WISDOM PANACEA BIOLOGICS, published 2019)

B1: SEQ ID NO: 8, histidine-tagged (peptide)
peptide: SAFNNKR
notes: also called ZR with position 2 substituted with alanine; not shown: histidine tag
B2: SEQ ID NO: 10, histidine-tagged (peptide)
peptide: SFFANKR
notes: also called ZR with position 4 substituted with alanine; not shown: histidine tag

Target: T1, Aβ42 oligomers (UniProt P05067 672-713)
T1 construct: domain: Aβ42; Oligomeric state
Test: ELISA on coated Aβ42 oligomers, His-tagged polypeptide at 1 µg per well

T1 sequence (P05067 672-713 limits assumed): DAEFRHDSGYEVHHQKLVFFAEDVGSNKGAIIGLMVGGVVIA

Row | Binder | OD450
1 | B1 | 0.48
2 | B2 | 0.57
